These results are taken from the DeepSol protein solubility set.

This data set is described as follows: soluble on expression in E. coli; label from the status in PepcDB or PDB records.
Turning to “MTSRMQPKSGVYSVSKADFTKIFEDVPKVPITSAVDLRNKFDAVRIILSNSSEDWNKRQTQLKTVRSLVIHGEKVVDRPTMIAHLVQLLGCFELAVKDLRSQVLREAAITCSFIVSKYGIETHSIGEDILVPAMSQVAVSTKIMATSASTLTEFIVEYVQTRQVFTILSSFSTSKDKSQRRQLAALLEIVISKWSDRIKKQIMRQICELIKSAINDADSETRAAGRRAFAKLDEMHSEEADALYLELDHSKQKMLRGGDAASSWASVNSEKGSIPIRSKLSAGSKAHMNISAISEKKEGIKKLLPIVADTSLNPIEIKNIGNCLNRLLSDASNTMVLEIYSIFVRTHSSRLSEWLRLALAKLFARKAAETLPNTKKQIGHTLNVILECFNAHHQLVTVCELMCDPIHLMVPKARVVLLEYLTSLLDEYTEPGASINAKELKTAIRKMLTWASDPRLSILLTPHVEKAICSMFCVNVADFSALISDLDSEQKNWIHQTLQRNGLENGISSNNIATNSGATASRETSNTSFQKESTSFGLPEFGARKGGTGVNLGSLNISNNLALSRLEEQSTSRLMEKVNLNSTVTLPPDTLEKIQNVQDLLQKMRSSENADEQESAISSIYMMICDGGFGVWEQCYAKLLLNLFEILSKSRSENNKKMCLRILGKMCTAQAAKLFDSTEMAVCKVLDAAVNTNDATTALAVEDCLRTLATHLPLSNIINIAKVILNQEPIDDERASLVLKMVTRLFEELPAEELNNIVDDITPTIIKAYQSTSSTVRKTVVYCLVAMVNRVGEQRMTPHFTKLPKAMTNLIQVYVNRAISTSLPRL”, the “soluble on expression in E. coli” value is listed as “not soluble”.

“MTIKEMPQPKTFGELKNLPLLNTDKPVQALMKIADELGEIFKFEAPGRVTRYLSSQRLIKEACDESRFDKNLSQALKFVRDFAGDGLFTSWTHEKNWKKAHNILLPSFSQQAMKGYHAMMVDIAVQLVQKWERLNADEHIEVPEDMTRLTLDTIGLCGFNYRFNSFYRDQPHPFITSMVRALDEAMNKLQRANPDDPAYDENKRQFQEDIKVMNDLVDKIIADRKASGEQSDDLLTHMLNGKDPETGEPLDDENIRYQIITFLIAGHETTSGLLSFALYFLVKNPHVLQKAAEEAARVLVDPVPSYKQVKQLKYVGMVLNEALRLWPTAPAFSLYAKEDTVLGGEYPLEKGDELMVLIPQLHRDKTIWGDDVEEFRPERFENPSAIPQHAFKPFGNGQRACPGQQFALHEATLVLGMMLKHFDFEDHTNYELDIKETLTLKPEGFVVKAKSKKIPLGGIPSPSTEQSAKKVRKKAENAHNTP”: the “soluble on expression in E. coli” value is on record as “soluble”. For the sequence “MQANAIDFENYELLQDDVCARRIVAAKQKLGKRAIILAHHYQRADVYCHADLTGDSLKLSYLAARTDTEFLVFCGVHFMAEVADILSSSEQTVILPDLSAGCSMADMANLTKVERVWRELAEVLDPDERVTPVTYINSSADLKAFCGQHDGIVCTSSNAVKILQWAFSRREKVLFFPDQHLGRWSGYKMGLSPDEMPVWDFDEPMGGLTPEQIEKARILLWKGHCSVHQMFQPQHILRFRNQYPDGLVISHPECSFEVCKASDYVGSTEYIINTIRAAKSGTRWLVGTELNLVGRIAEEFKAEGKIIQFMSPMVCMCSTMARIDPQHLAWSLENLAEGRVVNQIRVPEPQASLAKLTLEKMLEVSKLEHHHHHH”, the “soluble on expression in E. coli” value is given as “not soluble”. As for “GSHMAMAYVIRDEWGNQIWICPGCNKPDDGSPMIGCDDCDDWYHWPCVGIMAAPPEEMQWFCPKCANKIKKDKKH”, the “soluble on expression in E. coli” value is listed as “soluble”. For the sequence “MEGTLSFVSGFAPAVYRRELFRHRCVTTAPEARAWPRLGLLRANSGARLSRVDITPEIYKRLVSMAKRTEGNFSAVAGAILESYLTAATNRDLRAVIFDMDGVLCDSERLSRAAGVEYFRRYHGVWPTEKDFADFAGTGEAAFLSGVARRYSVKDFDVNKAKEGFFNIYVNEYVSALEPFEGVREFIQQIKTMGLKTALASSADAIKVHANLSAIGFERDMFDFVTRSDEIANKKPAPDIFLAAAEGLGVPPESCVVIEDAPAGVLAAKRARMRCVAVATSVSAQLLWDAGADIVRPAPQYIMLDDIVITDDADASAPASASQE”, the “soluble on expression in E. coli” value is recorded as “soluble”. In the case of “MGSDKIHHHHHHMPASDVIIAGSGPAGAMLARDLTRAGASVRILERGGETPASAPNLWKLWRRKEALHVAPGVALLRGTRVGGGSTVFYHTAISPPLEMFSHHGVEMAQDLAAVLAELPHQPLQAPLLGPTAQRIIDAARSLGLPWQTLPKMIDQELCGHGDCPPAAFWSAASLLAQAMQLGAELETGIQVNRVLFQNGRAVGVEALQKGQLRRFMGGTVILSAGGVASPVILQRSGIREAGRGFFCDPLRVGVAIGRGNGLQEAEMPMTAGFVDREAGYMLTDMTVPPNFYRAFAWAAGRVDMLAHYRHSMMIMVKIRDEISGEVNANGRVWRHFSAAEKNRMRNGMGLAADILRAAGGRRIFFSPWLAAHPGGSVRLGELLDERLSCCTPNLHVCDASVIPEPWGLPPTLTVLSLAKYLGRILLG” it was “not soluble”; in that of “MGSDKIHHHHHHMLSSAEKVKGQGVASAYRELVNLLEERYKNEIDMKINSFEKSDITHYHTVDFRFFLSTFFKKKRGVRVGYVHFLPETMEGSLKLPWIARVVFYKYLIGFYKRMDEIVVVNPSFIPKLTAYNIPAEKIHYIPNFVSKKSFFPISKGEKELARAKYEIPADKFTVIGIGQVQHRKGVLDFIEVAKQLPDVQFVWAGGFSFGKITSGYEELKKIYDNPPSNVKFIGIVDRSEMNSCINMADVFFMPSYNELFPMAILEAMSCDVPILLRNLDLYEEILDGYYVKEVDNPGFIRAIERLENDTNYYNEMLQASKRGAAYYSEDRLAEIWLDFYQGLLTKE”, “not soluble”. As to “MNDYTQQLQGKKDYLKTLFAGLDVPEWEVYESPDKHYRMRAEFRIWHEGGEMFYAMFEKGQKASGASMIRCDRFEAASEAVNRLMPELIAAAAQSPELKKRWYAVEFLSTLSGEMLVTMIYHKRLDAEWMQAAQALQQQLDISVIGRSRGQKIVLKQDYVTETLKVGNRDFRYRQIEGS”, the “soluble on expression in E. coli” value is “not soluble”.

Take “MGSDKIHHHHHHMRSITTNYSDDGYNFAFLDEQTKRMVRRTLLKALSIPGYQVPFGGREMPLASGWGTGGIQITASVLGPNDRLKVIDQGADDTTNAVSIRRFFQTVADISVTESTEEATIIQTRHRVPEAPLTEGQILVYQVPEPEPLRKLIPRESETRKMHAYAEYGAMQVTLYENIARFGRIAKTYDYPAMINGRFLMSPSPIPKFDNPKMANNPAIQFWGAGREKRIYAVPPYTSVRSLDFDDHPFEVQTWQGCCALCGSTVSYLDEVITDDKGSRMFVCSDTDFCNTRQAQAAAQPNSAGGES”: the “soluble on expression in E. coli” value is reported as “not soluble”. Take “MGSDKIHHHHHHMHRLPPLRAIQVFDSVARNQSFSIAASQLAITQGAVSKQVKLLEEFYAEKLFIRCGTNIELTKKGTWLAYQLTPIFDQLNGICNFNSISRGKIRIATYPSLSLGYLTYEIEQFNSAHPNIDVEIILAINHPTMCDEIADLFITTEESIDGYHYQQLFQERLIPVISPKIINDTTIIKIKDLTGYTLLVTNGKENSDWQLWFNHHNLKPAIYQKMNMFSDALLSTRAAELGNGIALSCEVTAHRDIIDGRLCKVGLPSAPTGRRYFLCCKNRRRYEPNIKLLSDWINKKFIND”: the “soluble on expression in E. coli” value is “not soluble”.

Consider “MSLSEIVVSKFGGTSVADFDAMNRSADIVLSDANVRLVVLSASAGITNLLVALAEGLEPCERFEKLDAIRNIQFAILERLRYPNVIREEIERLLENITVLAEAAALATSPALTDELVSHGELMSTLLFVEILRERDVQAQWFDVRKVMRTNDRFGRAEPDIAALAELAALQLLPRLNEGLVITQGFIGSENKGRTTTLGRGGSDYTAALLAEALHASRVDIWTDVPGIYTTDPRVVSAAKRIDEIAFAEAAEMATFGAKVLHPATLLPAVRSDIPVFVGSSKDPRAGGTLVCNKTENPPLFRALALRRNQTLLTLHSLNMLHSRGFLAEVFGILARHNISVDLITTSEVSVALTLDTTGSTSTGDTLLTQSLLMELSALCRVEVEEGLALVALIGNDLSKACAVGKEVFGVLEPFNIRMICYGASSHNLCFLVPGEDAEQVVQKLHSNLFEEGHHHHHH”, for which the “soluble on expression in E. coli” value was “soluble”. Take “GTIVITGTITDTTCVIEDPSGPNHTKVVQLPKISKNALKANGDQAGRTPFIIKLKDCPSSLGNGVKAYFEPGPTTDYSTGDLRAYKMVYATNPQTQLSNITAATEAQGVQVRISNLNDSKITMGANEATQQAAGFDPEVQTGGTSRTVTMRYLASYVKKNGDVEASAITTYVGFSVVYP”: the “soluble on expression in E. coli” value is given as “not soluble”. Take “MSGRYNMNIILGATGQVGSMLVDNLLGKGQPVRAVVRDGLKAQGLKNKGVEVKIADYLDVEALKKAFQGGSSVFLLTPENPESENFINEIQRIMSNYREAVLSSGISKIVGLSSMGAQHKSGTGNLMASYMLEHAFSDLEIEQVFVRPAYYFSNWLGYLELVREYGILPTFFPPELELPMIAPPDVAGFLSDVMTCKTQQERIYEISGPHDYSSSDIAKIFGDVLNKNVTLQQVLPEEWENTLIQAGFSKDGTRNLMLMTKAVIDGKTKNETTNRLRFSTNFKNYLQSVILNMS”: the “soluble on expression in E. coli” value is “not soluble”. As for “PSLSKEAALVHEALVARGLETPLRPPVHEMDNETRKSLIAGHMTEIMQLLNLDLADDSLMETPHRIAKMYVDEIFSGLDYANFPKITLIENKMKVDEMVTVRDITLTSTSEHHFVTIDGKATVAYIPKDSVIGLSKINRIVQFFAQRPQVQERLTQQILIALQTLLGTNNVAVSIDAVHYCVKARGIRDATSATTTTSLGGLFKSSQNTRHEFLRAVRHHN”, the “soluble on expression in E. coli” value was “soluble”.

Regarding “GGGSCYFIPNEGVPGDSTRKCMDLKGNKHPINSEWQTDNCETCTCYETEISCCTLVSTPVGYDKDNCQRIFKKEDCKYIVVEKKDPKKTCSVSEWII”, the “soluble on expression in E. coli” value is “soluble”. As for “AHHHHHHGSGNNTEVIKMVEVRLENLTKKFGDFTAVNSLNLTIKDGEFLVLLGPSGCGKTTTLRMIAGLEEPTSGKIYFGDRDVTYLPPKDRNVSMVFQSYAVWPHMTVYENIAFPLKIKKYPKDEIERRVKWAAELLQIEELLDRYPAQLSGGQRQRVAVARAIVVEPDVLLMDEPLSNLDAKLRVAMRAEIKKLQQKLKVTTIYVTHDQVEAMTMGDRIAVMNRGKLLQVGSPTEVYLNPNSVFVATFIGAPEMNILEVSVGEGYLEGEGFKIELPDDIMEALRNYIGKTVLFGIRPEHMVIEGISELAHMRRTAKIKGVVDFVEALGTDTIVHVRFEESIIKVKLPGHIPLEIGKEVSVLIDLDKIHIFDKNSEKAII”, the “soluble on expression in E. coli” value is reported as “soluble”. Turning to “AVANATELVNKISENCFEKCLTSPYATRNDACIDQCLAKYMRSWNVISKAYISRIQNASASGEI”, the “soluble on expression in E. coli” value was “soluble”. With “MSLRNEVQFELFGDYALFTDPLTKIGGEKLSYSVPTYQALKGIAESIYWKPTIVFVIDELRVMKPIQMESKGVRPIEYGGGNTLAHYTYLKDVHYQVKAHFEFNLHRPDLAFDRNEGKHYSILQRSLKAGGRRDIFLGARECQGYVAPCEFGSGDGFYDGQGKYHLGTMVHGFNYPDETGQHQLDVRLWSAVMENGYIQFPRPEDCPIVRPVKEMEPKIFNPDNVQSAEQLLHDLGGEEGHHHHHH”, the “soluble on expression in E. coli” value was “soluble”. As to “MVEEAERIALISHTAPDGDSVGSSIGFAAMLREKGKSHISVIVPDDIPQYLYCIPGANKVIVHETHPSEAEKALAEADLVFCMDFNAPHRVAGLQSALESSSAPKVLIDHHLYPADIFTLSFSYPPLSSTSELVLRLAKAIGMESYLTQDAATALMTGILTDTGVFSYSSSDPDLYLLVADLMRAGADKDTIIRNTFQQNSEGKMRMQGYVLYEKMTLLPEMGVAYFTLSAEELVRFHNRTGDTDGLANLPLDIAGIEAVCFLREDKNQIKLSFRSTGNYPVNTLAENFGGGGHKNAAGGEFQGSLQEATEKLLKIWKDFNPKNYNNKNQQLEHHHHHH”, the “soluble on expression in E. coli” value was “soluble”. Regarding “MSLAQFSVNAQRFDPYKNFKFRIKWDGRYVAGVSKVSALKRTTEVVEHREGGDASNVRKSPGRTKYEPITMERGVTHDTEFEKWANKVWNYGSGMGAEVSLKDFRKDIIIEVYNEAGQLAIAYKVYRCWVSEYQALPELDANANAVAIQSMKLENEGWERDYDIGEPDEPTFTEPQEGHHHHHH”, the “soluble on expression in E. coli” value was “soluble”.
